Source: patent US20080220049A1 (published 2008)

What was measured:
[1] = biological target: T1, full-length human KDR on cells (human, UniProt P35968 20-1356); assay: flow cytometry on CHO KDR cells
T1 construct: whole, on cells; also called CHO KDR; CHO-KDR
Method: Binding of fibronectin-based scaffold protein to cell-surface KDR and Flk-1 was analyzed simultaneously on VEGF-R2-expressing and control cells by flow cytometry. CHO-pcDNA3 cells (control) were released from their dishes with trypsin-EDTA, washed in Dulbecco's PBS without calcium and magnesium (D-PBS⁻; Invitrogen), and stained for 30 minutes at 37° C. with 1.5 μM CMTMR (5-(and-6)-(((4-chloromethyl)benzoyl)amino)-tetramethylrhodamine) (Molecular Probes). The cells were washed in D-PBS⁻ and incubated for a further 30 minutes at 37° C., and then resuspended in blocking buffer (D-PBS⁻/10% fetal bovine serum) on ice. CHO-KDR or CHO-Flk cells were treated identically except that CMTMR was omitted. […] For cells treated with an anti-KDR mouse monoclonal antibody (Accurate Chemical, Westbury, N.Y.) or an anti-flk-1 goat polyclonal antibody (R&D Systems), the anti-His₆ step was omitted, and antibody binding was detected with the species-appropriate Alexa Fluor 488 conjugated secondary antibody (Molecular Probes). Following staining, cells were resuspended in 200 μl/well D-PBS⁻/1% FBS/1 μg/ml 7-aminoactinomycin D (7-AAD; Molecular Probes) and analyzed by flow cytometry on a FACSCalibur (Becton Dickinson, San Jose, Calif.) equipped with a […] laser. […]

[2] = biological target: T2, mouse vascular endothelial growth factor receptor-2 Fc chimera (Flk-1-Fc) (mouse, UniProt P35918 20-762); assay: radioactive equilibrium binding assay, % of input at 1 nM Flk-1-Fc
T2 construct: Purchased from R&D Systems; also called mouse VEGF-R2; not shown: Fc portion of the purchased chimera is not described
T2 sequence (P35918 20-762, change not shown): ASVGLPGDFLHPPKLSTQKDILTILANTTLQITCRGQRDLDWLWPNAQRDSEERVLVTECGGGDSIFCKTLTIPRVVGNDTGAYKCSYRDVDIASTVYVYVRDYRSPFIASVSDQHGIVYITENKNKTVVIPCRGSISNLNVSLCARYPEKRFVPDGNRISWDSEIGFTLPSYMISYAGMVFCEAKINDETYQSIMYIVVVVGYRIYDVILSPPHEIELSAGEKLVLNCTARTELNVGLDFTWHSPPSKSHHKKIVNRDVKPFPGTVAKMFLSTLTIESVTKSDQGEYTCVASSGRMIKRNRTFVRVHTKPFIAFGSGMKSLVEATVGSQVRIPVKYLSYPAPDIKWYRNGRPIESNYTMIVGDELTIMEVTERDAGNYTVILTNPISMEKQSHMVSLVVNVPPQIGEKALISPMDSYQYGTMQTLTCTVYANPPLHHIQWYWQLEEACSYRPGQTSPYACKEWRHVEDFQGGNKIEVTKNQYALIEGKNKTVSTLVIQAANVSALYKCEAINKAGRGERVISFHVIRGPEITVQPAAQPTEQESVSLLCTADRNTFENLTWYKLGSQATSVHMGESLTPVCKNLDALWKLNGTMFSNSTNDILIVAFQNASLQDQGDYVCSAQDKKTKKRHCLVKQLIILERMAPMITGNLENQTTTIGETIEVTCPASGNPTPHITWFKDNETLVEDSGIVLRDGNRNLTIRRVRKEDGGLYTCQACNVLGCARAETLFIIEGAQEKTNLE

[3] = biological target: T3, human vascular endothelial growth factor receptor-2 Fc chimera (KDR-Fc) (human, UniProt P35968 20-764); assay: radioactive equilibrium binding, 1 nM KDR-Fc
T3 construct: range 1-764; bought from R&D Systems; stated range 1-764 counts from the first residue of the precursor; also called human VEGF-R2-Fc; not shown: human IgG1 Fc
Method: (§1) To prepare ³⁵S-labeled binding proteins for analysis, mRNA was prepared as described above for RNA-protein fusion production but the linker ligation step was omitted. The mRNA was expressed using rabbit reticulocyte lysate translation kit (Ambion) in the presence of ³⁵S-labeled Met at 30° C. for 1 hour. Expressed protein was purified on M2-agarose Flag beads (Sigma) as described above. This procedure produced the encoded protein without the nucleic acid tail. In a direct binding assay, VEGF-R2-Fc fusions in concentrations ranging from 0 to 200 nM were added to a constant concentration of the purified protein (0.2 or 0.5 nM) and incubated at 30° C. for 1 hour in buffer B. The receptor-binder complexes were captured using Protein A magnetic beads for another 10 minutes at room temperature using a Kingfisher™. The beads were washed with six reaction volumes of buffer B. The protein was eluted from the beads with 100 μL of 0.1 M KOH. 50 μL of the reaction mixture and elution were dried onto a LumaPlate-96 (Packard) and the amount of ³⁵S on the plate was measured using a TopCount NXT instrument (Packard). The amount of fibronectin-based scaffold protein bound to the target was estimated as a percent of radioactivity eluted from Protein A magnetic beads compare to radioactivity in the reaction mixture. Nonspecific binding of fibronectin-based scaffold proteins to the beads was determined by measuring binding in the absence of KDR-Fc and represented less than 1-2% of the input. Specific binding was obtained through subtraction of nonspecific binding from total binding. Data was analyzed using the GraphPad Prizm software (GraphPad Software, Inc, San Diego, Calif.), fitted using a one site, non-linear binding equation.
T3 sequence (P35968 20-764 limits assumed, change not shown, form in doubt): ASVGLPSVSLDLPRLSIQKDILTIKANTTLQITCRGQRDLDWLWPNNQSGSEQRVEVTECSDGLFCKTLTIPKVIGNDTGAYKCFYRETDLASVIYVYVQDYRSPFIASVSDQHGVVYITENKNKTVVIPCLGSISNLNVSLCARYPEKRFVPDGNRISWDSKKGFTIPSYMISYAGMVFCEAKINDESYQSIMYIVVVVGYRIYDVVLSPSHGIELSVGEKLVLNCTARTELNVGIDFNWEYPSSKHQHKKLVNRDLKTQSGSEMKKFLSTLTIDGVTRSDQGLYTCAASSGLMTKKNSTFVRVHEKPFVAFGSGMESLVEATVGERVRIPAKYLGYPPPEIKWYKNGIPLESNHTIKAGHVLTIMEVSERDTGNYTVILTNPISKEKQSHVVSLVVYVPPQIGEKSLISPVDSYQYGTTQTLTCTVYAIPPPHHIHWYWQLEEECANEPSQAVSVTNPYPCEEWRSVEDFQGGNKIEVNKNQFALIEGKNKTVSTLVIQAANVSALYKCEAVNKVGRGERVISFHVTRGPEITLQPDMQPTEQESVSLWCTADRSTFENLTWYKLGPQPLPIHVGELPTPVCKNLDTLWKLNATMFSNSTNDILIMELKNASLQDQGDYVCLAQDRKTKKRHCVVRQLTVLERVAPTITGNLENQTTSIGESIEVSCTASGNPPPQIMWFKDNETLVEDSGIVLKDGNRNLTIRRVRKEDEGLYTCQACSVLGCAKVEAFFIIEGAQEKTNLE

[4] = biological target: T4, human vascular endothelial growth factor receptor-2 Fc chimera (KDR-Fc) (human, UniProt P35968 20-764); assay: radioactive equilibrium binding, 1 nM KDR-Fc
T4 construct: range 1-764; Bought from R&D Systems; limits 1-764 are stated for the selection target; also called human VEGFR-2; not shown: human IgG1 Fc
Method: as §1
T4 sequence (P35968 20-764 limits assumed, change not shown, form in doubt): as above

[5] = biological target: T5, mouse vascular endothelial growth factor receptor-2 Fc chimera (Flk-1-Fc) (mouse, UniProt P35918 20-762); assay: radioactive equilibrium binding, 1 nM Flk-1-Fc
T5 construct: Bought from R&D Systems; also called mouse VEGFR-2; Fc part of the bought chimera not given
Method: as §1
T5 sequence (P35918 20-762, change not shown): as the sequence (P35918 20-762, change not shown) above

T1 sequence (P35968 20-1356): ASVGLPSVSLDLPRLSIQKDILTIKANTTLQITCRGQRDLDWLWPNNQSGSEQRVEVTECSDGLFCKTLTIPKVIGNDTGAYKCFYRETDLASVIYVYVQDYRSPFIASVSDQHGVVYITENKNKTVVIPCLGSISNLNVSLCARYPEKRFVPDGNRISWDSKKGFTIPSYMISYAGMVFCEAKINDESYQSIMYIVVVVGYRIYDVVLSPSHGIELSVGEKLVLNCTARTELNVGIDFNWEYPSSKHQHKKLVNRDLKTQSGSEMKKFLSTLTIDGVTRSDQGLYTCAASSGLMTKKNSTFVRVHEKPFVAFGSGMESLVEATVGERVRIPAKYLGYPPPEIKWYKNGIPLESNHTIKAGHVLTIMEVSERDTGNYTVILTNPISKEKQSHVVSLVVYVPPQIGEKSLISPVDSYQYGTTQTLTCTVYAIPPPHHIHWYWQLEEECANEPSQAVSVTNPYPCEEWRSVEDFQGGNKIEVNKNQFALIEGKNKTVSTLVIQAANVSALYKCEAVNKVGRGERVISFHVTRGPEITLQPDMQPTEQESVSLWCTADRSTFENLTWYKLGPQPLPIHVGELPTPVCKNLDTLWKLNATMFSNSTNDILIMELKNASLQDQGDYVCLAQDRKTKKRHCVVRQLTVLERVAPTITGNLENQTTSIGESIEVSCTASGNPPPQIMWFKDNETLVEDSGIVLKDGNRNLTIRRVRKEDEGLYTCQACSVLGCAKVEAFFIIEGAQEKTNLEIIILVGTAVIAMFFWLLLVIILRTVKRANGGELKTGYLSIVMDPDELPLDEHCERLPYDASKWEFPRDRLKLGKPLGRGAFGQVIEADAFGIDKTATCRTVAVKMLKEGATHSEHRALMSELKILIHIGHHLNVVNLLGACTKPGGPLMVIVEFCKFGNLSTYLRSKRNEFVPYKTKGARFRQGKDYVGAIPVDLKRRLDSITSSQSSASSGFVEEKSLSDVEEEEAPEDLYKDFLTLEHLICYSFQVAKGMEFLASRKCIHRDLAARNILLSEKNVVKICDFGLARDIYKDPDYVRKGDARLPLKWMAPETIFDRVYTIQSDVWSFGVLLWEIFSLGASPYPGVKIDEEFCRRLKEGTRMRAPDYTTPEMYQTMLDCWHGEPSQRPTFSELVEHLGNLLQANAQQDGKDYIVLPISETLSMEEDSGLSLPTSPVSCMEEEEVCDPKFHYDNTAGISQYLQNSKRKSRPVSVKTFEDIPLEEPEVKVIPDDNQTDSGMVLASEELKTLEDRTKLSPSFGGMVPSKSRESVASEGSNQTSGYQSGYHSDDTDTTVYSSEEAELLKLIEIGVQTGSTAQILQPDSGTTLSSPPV

Binder | Binding to 1 nM KDR, % [4] [%] | Binding to 1 nM Flk-1, % [5] [%] | also measured
wild type fibronectin-based scaffold protein (tenth type III domain of human fibronectin) (other, E. coli produced with His6 tag; also called WT; 10Fn3) VSDVPRDLEVVAATPTSLLISWDAPAVTVRYYRITYGETGGNSPVQEFTVPGSKSTATISGLKPGVDYTITGYAVTGRGDSPASSKPISINYRT | – | – | binding result [1]: no binding
E2 (designed binder, 10Fn3 variant, residues 1-8 deleted) EVVAATPTSLLISWRHPHFPTRYYRITYGETGGNSPVQEFTVPLQPPTATISGLKPGVDYTITGYAVTDGPNDRLLNIPISINYRT | – | – | Binding to 1 nM FLK, % [2]: 10%
2′Del F6 PR4 (designed binder) EVVAATPTSLLISWRHPHFPTRYYRITYGETGGNSPVQEFTVPLQPPTATISGLKPGVDYTITGYAVTLGWNDHELYIPISINYRT | – | – | Binding to 1 nM KDR, % [3]: 22%
3′E10 PR4 (designed binder) EVVAATPTSLLISWRHPHFPTRYYRITYGETGGNSPVQEFTVPLQPPTATISGLKPGVDYTITGYAVTAGHKDQELLTPISINYRT | – | – | Binding to 1 nM KDR, % [3]: 21%
D9 (designed binder, Del 1-8; assay tags not included) EVVAATPTSLLISWRHPHFPTRYYRITYGETGGNSPVQEFTVPLQPPTATISGLRPGVDYTITGYAVTEERNGRVLFTPISINYRT | 31 | 40 | –
F6 (designed binder, Del 1-8; assay tags not included; Framework 4 printed as ISTNYRT) EVVAATPTSLLISWRHPHFPTRYYRITYGETGGNSPVQEFTVPLQPPTATISGLKPGVDYTITGYAVTVEQNGRVLMTPISTNYRT | 37 | 2 | –
F5 (designed binder, Del 1-8; assay tags not included) EVVAATPTSLLISWRHPHFPTRYYRITYGETGGNSPVQEFTVPLQPPTATISGLRPGVDYTITGYAVTVERDGRELNIPISINYRT | 12 | 8 | –
